Experimental data from patent US20210253639A1 (REGENTS OF THE UNIVERSITY OF MICHIGAN, published 2021).
Values belong to the binder of their own block, whether it stands above or below them. Ends that are not written are not given here. E3 = triethyleneglycol (PEG3) linker; Cy5.5 = cyanine 5.5 fluorophore

How the values were obtained:
[1] = molecular target: T1, epidermal receptor growth factor 2 (ErbB2) (human, UniProt P04626 23-1255); test: confocal microscopy of FITC-labeled peptides on Flo1-HER2 cells
T1 construct: whole, on cells; Receptor on human cancer cell lines or xenograft tumour cells; also called HER2; HER2/neu
Experimental: A FITC label was attached to each peptide, and binding to Flo1-HER2 and QhTERT cells (control) was imaged using confocal microscopy. […] KSPNPRF (SEQ ID NO: 2) was selected based on the highest mean fluorescence intensity with binding to Flo1-HER2. From the model, this peptide was determined to bind to HER2 domain 3. The peptide was then labeled for deep tissue imaging with a Cy5.5 fluorophore via a GGGSK (SEQ ID NO: 3) linker on the C-terminus, hereafter KSP*-Cy5.5. Cy5.5 was chosen for high quantum yield and photostability. The linker prevents steric hindrance by spatially separating the fluorophore from the peptide. A scrambled sequence PPSNFKR (SEQ ID NO: 4) was developed for use as control by altering the conformationally rigid spacer PNP and moving both hydrophobic and hydrophilic amino acids at the C-terminus. This control peptide also was linked to Cy5.5 via GGGSK (SEQ ID NO: 3), hereafter PPS*-Cy5.5. […] The fluorescence emission peak occurs at 708 nm in the NIR spectrum.

[2] = molecular target: T1, epidermal receptor growth factor 2 …; test: flow cytometry on OE33 cells (carry EGFR and ErbB2), apparent dissociation constant
[3] = molecular target: T2, epidermal growth factor receptor (EGFR) (human, UniProt P00533 25-1210); test: as above
T2 construct: whole, on cells; Endogenous receptor on human cancer cell lines or xenograft tumour cells; also called ErbB-1; HER1

[4] = molecular target: EGFR and ErbB2 together on the surface of cells that express both (OE33, SKBr3) (human) (UniProt P00533); test: flow cytometry on OE33 cells, apparent dissociation constant
[5] = molecular target: EGFR and ErbB2 together on the surface of cells that express both (OE33, SKBr3) (human) (UniProt P00533); test: flow cytometry on OE33 cells, against QRH*-Cy5.5 and KSP*-Cy5.5
[6] = molecular target: EGFR and ErbB2 together on the surface of cells that express both (OE33, SKBr3) (human) (UniProt P00533); test: confocal microscopy on OE33 cells, against QRH*-Cy5.5 and KSP*-Cy5.5
[7] = molecular target: EGFR and ErbB2 together on the surface of cells that express both (OE33, SKBr3) (human) (UniProt P00533); test: flow cytometry time course on OE33 cells, 1 µM peptide, first-order fit

- binding result [1]: binds
Binder: KSPNPRF (also: FITC label, attachment not given here) [KSPNPRF with a FITC label]

- Kd [2]: 54 nM
B1: KSP*-Cy5.5 (peptide)
peptide: KSPNPRFGGGSK(Cy5.5)-NH2
notes: also called KSP*-GGGSK-Cy5.5; ErbB2 monomer peptide

- Kd [3]: 98 nM
B2: QRH*-Cy5.5 (peptide)
peptide: QRHKPREGGGSK(Cy5.5)-NH2
notes: also called QRH*-GGGSK-Cy5.5; EGFR monomer peptide

- Kd [4]: 23 nM
- fold improved binding affinity compared with either monomer alone [5]: 2 fold
- fold greater fluorescence intensity compared with either monomer alone [6]: 3 fold
- apparent association time constant Ka [7]: 0.22 min⁻¹
- association time (printed in brackets after Ka) [7]: 4.5 min
B3: QRH*-KSP*-E3-Cy5.5 (peptide)
peptide 1: QRHKPRE-E3
peptide 2: KSPNPRF-E3
modifications: not fully specified (bridges); also: heterodimer: both C-termini joined via E3 to alpha and epsilon amines of a Lys, followed by Lys carrying Cy5.5
